# According to US20230002757A1:
# Target: KLH (Keyhole Limpet Hemocyanin) (keyhole limpet)
# Assay: ELISA on KLH
row,EC50 [nM],Binder
1,0.181,NGS602-OLIGO_12 (VHH) VHH: QVQLVESGGGSVQAGGSLRLSCAASGRTFGRHVMAWFRQAPGREREFVAAISGNGRVTNYALSMKGRFTISRDNANDMVYLQMDGLKPEDTAVYSCATRMAFDSDSNFPATYDVWGQGTQVTVSS
2,0.61,NGS602-OLIGO_359 (VHH) VHH: QVQLVESGGGLVQPGGSLRLSCAASGYSLSFYAMGWYRQSPGKQREVVARIAGPGVTNYADSVMGRFTISRDNAKNMVYLQMNSLEPEDTAVYYCNAGGTRWSVGDYWGKGTLVTVSS
3,0.28,NGS602-OLIGO_186 (VHH) VHH: QVQLAESGGGLVQAGDSLRLSCAASGRSVSSYAMGWFRQAPGKEREFVAAISWSGESTHYADSVKGRFTISRDNAENTVYLQMNSLKPEDTAVYYCASYLSGHYYFGIGRDPPFGSWGQGTQVTVSS
4,220,NGS602-OLIGO_221 (VHH) VHH: QVQLVESGGGLVQAGESLRLSCVASGRTFSSYAMGWFRQAPGQEREFVARISRRGTNTYYADSVRGRFTISRDNAKNTVYLQMNSLKPEDTAVYYCAADRSDVFEKDPGYYDYWGQGAQVTVSS
5,0.291,NGS602-OLIGO_35 (VHH) VHH: QVSLVESGGGLVQAGGSLRLSCAASGRTFRRSAMGWFRRPPGKEREFVAAITSSGGSIYDPDIAKDRFTISRDNSKTSVYLQMNNLKPEDTAVYYCSLKTTYSGGPYDYTKGPEYDYWGQGTQVTVSS
6,0.213,NGS602-OLIGO_169 (VHH) VHH: RVQLVESGGGLVQAGGALRLSCVGSGFTFRDTAMAWFRQSPGKEREFVAGFSILSRYADSVKGRFTISRDNDKNTVYLQMNSLKPEDTAVYYCAAGDGTIASVLTTSGVNFWGQGTQVTVSS
7,0.077,NGS602-OLIGO_185 (VHH) VHH: QVQLVESGGGLVQAGGSLRLSCAASGRTSSRYVMGWFRQSPGKEREFVAAISANGRSTNYAGSVNGRFKISRDGAKDKVDLQMNSLKPEDTAVYFCATNMAFSSSSNFPANYDVWGQGTQVTVSS
8,0.707,NGS602-OLIGO_28 (VHH) VHH: QVQLVESGGGLVRAGGSLRLSCAASGRAFSSYPMGWFRRAPGKEREFVAAISLSGSKQYYVDSVKGRFTISRDNAKNTVSLQMNSLKPEDTAVYYCAALKDGEPPAVDYWGQGTQVTVSS
9,0.241,NGS602-OLIGO_55 (VHH) VHH: QVQLTESGGGLVQAGASLRLSCVASPDTPSTYTIAWFRRAPGKERDFVANIARAGTTITYADSVKGRFTISKDNARNTVYLQMNNLTPADTAIYYCAAYSPGSIIARDSTQYRYWGQGTRVTVSE
10,0.147,NGS602-OLIGO_149 (VHH) VHH: QVQLVESGGGLVQAGDSLRLSCAASGRTFSSYAMAWFRRPPGKAREFVALIRWSNGRTAVVDSVKGRFTASRDNAKNTGYLQMDSLKSEDTAVYYCAACDQALDPPRCNDWGQGTQVTVSS
11,1.74,NGS602-OLIGO_2 (VHH) VHH: QVQLVESGGGLVQPGGSLRLSCAASESIRSIYAMGWYRQAPGKQRELVALVTDDGSTDYVDSVKGRFTVSRDSAKNTVYLQMNSLKPEDTAVYHCYVEGSTHYDPVREYWGKGTLVTVSS
12,1.01,NGS602-OLIGO_31 (VHH) VHH: QVQLVESGGGLVQAGDSLRLSCTASGTTFDRYHMGWFRQAPGMERHVVAHISWSGANTYVADSMKGRFTISRDNAKNTAYLQINNLKFEDTALYYCAAGSYLAVPGSRWDYWGQGTQVTVSS
13,0.638,NGS602-OLIGO_152 (VHH) VHH: QVQLVESGGGLVQAGDSLRLSCAASGDNFSRYTFGWFRQAPGKEREFVAVINWSGSYTYVADSVAGRFTMSRDNAKHLVYLQMDSLNTGDTAVYYCAAHWDYGSSSRRQREYDYWGQGTQVIVSS
14,1.16,NGS602-OLIGO_205 (VHH) VHH: RVQLVESGGGLVQPGGSLRLSCTASGLPLNTAAMSWYRQTPGKERELVASISITGDSTTYADSVKGRFTISRDNVKNIVYLQMDILKPEDTAVYYCTRAPWDYKYWGQGTQVTVSS
15,0.067,NGS602-OLIGO_30 (VHH) VHH: QVQLVESGGGTVQAGGSLRLSCAASGLTFGSYAMEWYRQAPGKERELVATISSGGNTHYLASVKGRFTISRDNDKNTLYLQMNSLKPEDTAVYYCAAKYGWTGIWYAPSDYVHLGPGTQVTVSS
16,0.072,NGS602-OLIGO_72 (VHH) VHH: QVELVESGGALVQAGGSLKLSCVDSGRSFSSYVVAWFRQAPGKEREFVARVSASGAIRTYADSVRGRFTISRDNTKATVYLQMNSLKSEDTAVFFCAAGGVSTAVHPFKPTSYDFWGQGTQVTVSV
17,0.195,NGS602-OLIGO_266 (VHH) VHH: QVQLVESGGGLVQAGGSLRLSCAASGRTFFTYPMGWFRQAPGKERQFVAAISGNGDSIDYADSVKGRFTISRDNAKNTLYLQMNSLKPEDAALYYCNAVITHDYTRPLFASWGQGTQVTVSS
18,0.409,NGS602-OLIGO_151 (VHH) VHH: EVQLVESGGGLVQPGGSLRLSCTASGFTLSTSPVSWARQAPGKGPEWLAGIYSDGRTSNLVSLRGRFTISRDNAKNTVYLQMNSLLPEDTALYYCAIGAAAVGGLRGQGTQVTVSS
19,0.342,NGS602-OLIGO_42 (VHH) VHH: QVQLVESGGGLVQAGGSLRLSCLFSGTFGIYGMGWFRQAPGKAREFVAGVSRHGLTTQYADSVKGRFTISRDNAKNTMYLQMNSLKPEDTADYYCARSRLSASLLVTASDYDYWGQGTQVTVSS
